Laboratory results as given in patent publication US20230080224A1 (AGENCY FOR SCIENCE TECHNOLOGY AND RESEARCH, published 2023).

B1: humanized C12 (antibody, human IgG1, V domains shown)
VH: EVQLVESGGGLVQPGGSLRLSCAASGFSFSSSYWISWVRQAPGKGLEWIACIAIGSSGTTYYASWAKGRFTISRDNSKNTLYLQMNSLRAEDTAVYYCARSGDGYTYVELWGQGTLVTVSS
VL: DIQMTQSPSSLSASVGDRVTITCQASQSISSYLAWYQQKPGKVPKLLIYRASTLASGVPSRFSGSGSGTDFTLTISSLQPEDVATYYCQNYYDIDDSDNTFGQGTKVEIK
notes: CDRs grafted to a human IgG1 framework; recombinant; also called hC12
B2: AB2C130 (antibody, V domains shown)
VH: QSLEESGGDLVKPGASLTLTCTASGFSFSSGYWICWVRQAPGKGLEWIACIYTGVGATYYASWAKGRFTISKTSSTTVTLQMTSLTAADTATYFCARDFGGSSGFYFNLWGPGTLVTVSS
VL: FELTQTPSSVEAAVGATVTIKCQASQSISNALAWYQQKPGQPPKLLIYSASTLESGVPSRFKGSGSGTEFTLTISDLECADAATYYCQNYYGSTSSSYGVAFGGGTEVVVK
notes: Rabbit antibody cloned from a single B cell
B3: AB1C45 (antibody, V domains shown)
VH: QERLEESGGGLVQPEGSLTLTCTASGFSFSSSYYMCWVRQAPGKGMEWIGCIYTGNDDTWYASWAKGRFTVSKTSSTTVTLQMTSLTATDTATYFCARGLSPIDLWGPGTLVTVSS
VL: IVMTQTPSSKSVPVGDTVTINCQASESIYNNNNLGWYQQKPGQPPKLLIYWASTLASGVPSRFKGSGSGTQFTLTISDVECDDAATYYCAGYKSRTTDGSAFGGGTEVVVK
notes: as for B2
B4: AB1C36 (antibody, V domains shown)
VH: QSLEESGGDLVKPGASLTLTCTASGFSFSSGYNICWVRQAPGKGLELIACIYTSSSGSTYYASWAKGRFTISKTSSTTVTLQMTSLTVADTATYFCARGEAYYAYGYVGYAYYHGAFDPWGPGTLVTVSS
VL: DIVMTQTPASVEAGVGGTVTIKCQASHSISKYFSWYQQKIGQPPKLLIYEASTLASGVPSRFKGSGSGTQFTLTISDLECADAATYYCQSYYYGTSSSYAFGGGTEVVVK
notes: as for B2
B5: humanized C18 (antibody, human IgG1, V domains shown)
VH: EVQLVESGGGLVQPGGSLRLSCAASGFSFSSYWTCWVRQAPGKGLEWLGCTDGGSSGDTYYATWAKGRFTISRDNSKNTLYLQMNSLRAEDTAVYYCARNLITWDLWGQGTLVTVSS
VL: DIQMTQSPSSLSASVGDRVTITCQASESVYNNNQLSWYQQKPGKVPKLLIYWASKLASGVPSRFSGSGSGTDFTLTISSLQPEDVATYYCAGYKSSITDGNAFGQGTKVEIK
notes: CDRs grafted to a human IgG1 framework; recombinant; also called hC18
B6: humanized C4 (antibody, V domains shown)
VH: EVQLVESGGGLVQPGGSLRLSCAASGFTISNNYWICWVRQAPGKGLEWIGCIATGDGSTYYASWAKGRFTISRDNSKNTLYLQMNSLRAEDTAVYYCARGAAGSSWTTYFDFWGQGTLVTVSS
VL: DIQMTQSPSSLSASVGDRVTITCQAGQNIDNYLSWYQQKPGKVPKLLIYRASTLASGVPSRFSGSGSGTDFTLTISSLQPEDVATYYCQNNNGGSTFTGFPFGQGTKVEIK
notes: CDRs grafted to a human IgG1 framework; recombinant; also called hC4
B7: humanized C15 (antibody, human IgG1, V domains shown)
VH: EVQLVESGGGLVQPGGSLRLSCAASGFSFSSSYYMCWVRQAPGKGLEWIACIYTTYGGTWYASWAKGRFTISRDNSKNTLYLQMNSLRAEDTAVYYCARSSISDVTYFNLWGQGTLVTVSS
VL: DIQMTQSPSSLSASVGDRVTITCQASQSISNYLAWYQQKPGKVPKLLIYRASTLESGVPSRFSGSGSGTDFTLTISSLQPEDVATYYCQSYYDNNNYAFGQGTKVEIK
notes: CDRs grafted to a human IgG1 framework; recombinant; also called hC15
B8: humanized C36 (antibody, human IgG1, V domains shown)
VH: EVQLVESGGGLVQPGGSLRLSCAASGFSFSSGYNICWVRQAPGKGLELIACIYTSSSGSTYYASWAKGRFTISRDNSKNTLYLQMNSLRAEDTAVYYCARGEAYYAYGYVGYAYYHGAFDPWGQGTLVTVSS
VL: DIQMTQSPSSLSASVGDRVTITCQASHSISKYFSWYQQKPGKVPKLLIYEASTLASGVPSRFSGSGSGTDFTLTISSLQPEDVATYYCQSYYYGTSSSYAFGQGTKVEIK
notes: CDRs grafted to a human IgG1 framework; recombinant; also called hC36

How the values were obtained:
[1] = target: T1, human ALPPL2 (recombinant protein) (human, UniProt P10696 20-503); experiment: SPR
T1 chain: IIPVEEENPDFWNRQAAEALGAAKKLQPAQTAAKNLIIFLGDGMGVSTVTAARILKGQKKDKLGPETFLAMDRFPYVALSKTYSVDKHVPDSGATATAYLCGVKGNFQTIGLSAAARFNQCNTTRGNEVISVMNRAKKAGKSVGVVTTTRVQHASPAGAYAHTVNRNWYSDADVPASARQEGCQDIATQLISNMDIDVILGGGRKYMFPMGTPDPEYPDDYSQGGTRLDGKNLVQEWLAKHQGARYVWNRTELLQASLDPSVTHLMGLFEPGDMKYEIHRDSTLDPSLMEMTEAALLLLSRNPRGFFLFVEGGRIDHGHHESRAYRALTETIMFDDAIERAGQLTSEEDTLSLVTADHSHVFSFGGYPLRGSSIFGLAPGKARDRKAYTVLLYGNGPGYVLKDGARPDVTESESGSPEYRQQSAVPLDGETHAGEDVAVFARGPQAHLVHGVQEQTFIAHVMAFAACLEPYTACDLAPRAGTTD

[2] = target: T2, human ALPP (recombinant protein) (human, UniProt P05187 23-506); experiment: SPR
T2 chain: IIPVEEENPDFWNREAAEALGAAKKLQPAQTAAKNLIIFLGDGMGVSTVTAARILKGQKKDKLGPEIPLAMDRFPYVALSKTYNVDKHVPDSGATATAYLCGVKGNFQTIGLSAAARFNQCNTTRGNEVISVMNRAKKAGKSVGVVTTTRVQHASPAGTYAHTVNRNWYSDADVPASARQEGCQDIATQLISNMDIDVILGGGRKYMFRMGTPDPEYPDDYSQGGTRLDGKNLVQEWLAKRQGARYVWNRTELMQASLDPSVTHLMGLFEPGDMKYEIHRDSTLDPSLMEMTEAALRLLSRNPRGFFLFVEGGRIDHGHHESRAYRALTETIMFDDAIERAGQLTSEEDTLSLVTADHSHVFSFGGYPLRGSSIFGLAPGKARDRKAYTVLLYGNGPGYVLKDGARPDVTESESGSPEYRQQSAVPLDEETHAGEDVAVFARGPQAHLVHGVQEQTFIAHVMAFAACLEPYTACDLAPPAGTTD

[3] = target: human ALPP (recombinant protein) (human, UniProt P05187 23-506, limits assumed); experiment: SPR, Biacore T200, ligand captured by streptavidin on CM5 chip, antibody as analyte
Method: (§1) Select clones (C4, C15, C131, C12, C18, C36 and C53) were humanized by grafting the CDRs to a human IgG1 framework. […] Surface plasmon resonance was studied using Biacore T200. Ligands (e.g. ALPPL2 or ALPP) were immobilized on biosensors CM5 chips captured with the streptavidin. Ligands-loaded sensors were then incubated with different concentrations of analyte (recombinant expressed humanized antibody clones) to measure affinity.

[4] = target: T3, human ALPPL2 (recombinant protein) (human, UniProt P10696 20-503, limits assumed); experiment: as above
T3 construct: biotinylated where captured on streptavidin
Method: as §1

[5] = target: T1, human ALPPL2 (recombinant protein); experiment: BLI; single concentration
[6] = target: T4, human ALPPL2 expressed on cells (human, UniProt P10696 20-503); experiment: immunohistochemistry on FFPE ALPPL2+ve cell lines and tumor tissues
T4 construct: whole, on cells; also called placental-like alkaline phosphatase
Method: To enable development of a companion diagnostic, the IHC activity of the antibodies was evaluated (FIG. 5). Antigen retrieval by Proteinase-K digestion, but not heat mediated antigen retrieval, enabled detection. C36, C45 and C130 enabled detection in ALPPL2+ve cell lines (SCH) and formalin fixed paraffin embedded (FFPE) human tumor tissues by IHC. […] This is also indicative the optimal therapeutic window of these antibodies in the clinic.

[7] = target: T3, human ALPPL2 (recombinant protein); experiment: screen of rabbit B-cell clones by ELISA and FACS
Text: (§2) Specific clones were screened and identified by ELISA and high throughput flow cytometry (FIG. 3). Rabbit kidney cells were transfected with either truncated (for ELISA screen) or full-length (for FACS screen) ALPI and ALPPL2.

[8] = target: T5, ALPI (screening and SPR/ELISA protein) (UniProt P09923 20-503, limits assumed); experiment: screen of rabbit B-cell clones by ELISA and FACS
T5 sequence (looked up): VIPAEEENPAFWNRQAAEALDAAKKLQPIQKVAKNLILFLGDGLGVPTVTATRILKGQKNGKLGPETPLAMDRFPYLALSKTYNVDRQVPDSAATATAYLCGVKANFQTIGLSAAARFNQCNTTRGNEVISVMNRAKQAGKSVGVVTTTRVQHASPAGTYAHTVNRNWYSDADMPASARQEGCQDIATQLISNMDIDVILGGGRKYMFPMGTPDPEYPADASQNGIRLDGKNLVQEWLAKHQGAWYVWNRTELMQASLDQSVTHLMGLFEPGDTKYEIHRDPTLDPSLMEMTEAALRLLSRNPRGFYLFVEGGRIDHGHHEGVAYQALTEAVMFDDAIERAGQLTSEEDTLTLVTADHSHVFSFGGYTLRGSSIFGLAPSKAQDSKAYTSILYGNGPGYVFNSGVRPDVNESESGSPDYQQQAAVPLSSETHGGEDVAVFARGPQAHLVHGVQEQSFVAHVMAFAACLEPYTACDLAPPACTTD
Text: as §2

[9] = target: T6, human ALPI expressed on cells (human, UniProt P09923 20-503); experiment: FACS on transiently transfected 293T cells (FIG. 13A)
T6 construct: whole, on cells
T6 sequence (looked up): T5 sequence (looked up)

[10] = target: T7, human ALPL expressed on cells (human, UniProt P05186 18-501); experiment: as above
T7 construct: whole, on cells
T7 sequence (looked up): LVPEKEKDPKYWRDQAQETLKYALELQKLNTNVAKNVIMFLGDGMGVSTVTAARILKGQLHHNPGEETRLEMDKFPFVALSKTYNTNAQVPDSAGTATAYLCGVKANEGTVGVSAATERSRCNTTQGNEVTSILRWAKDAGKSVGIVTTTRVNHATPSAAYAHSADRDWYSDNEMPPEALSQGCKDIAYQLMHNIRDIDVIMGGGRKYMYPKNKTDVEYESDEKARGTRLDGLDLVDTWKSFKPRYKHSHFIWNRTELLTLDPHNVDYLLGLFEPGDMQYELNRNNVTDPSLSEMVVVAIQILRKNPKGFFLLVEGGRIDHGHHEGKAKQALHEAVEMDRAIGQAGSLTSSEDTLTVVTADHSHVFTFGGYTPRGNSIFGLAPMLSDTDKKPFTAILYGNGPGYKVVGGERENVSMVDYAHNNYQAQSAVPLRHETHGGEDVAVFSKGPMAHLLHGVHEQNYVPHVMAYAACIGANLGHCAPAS

[11] = target: T4, human ALPPL2 expressed on cells; experiment: FACS (FIG. 13)
[12] = target: T8, human ALPP expressed on cells (human, UniProt P05187 23-506); experiment: FACS (FIG. 13)
T8 construct: whole, on cells

[13] = target: T1, human ALPPL2 (recombinant protein); experiment: BLI
[14] = target: T2, human ALPP (recombinant protein); experiment: BLI

Binder	Kd [1]	Kd [2]	binding result [3]	binding result [4]	binding result [6]	binding result [7]	binding result [8]	other results
B1	80 pM	235 pM	binds	binds				
B2					binds	binds	no binding	Kd [5]: 1 pM
B3					binds	binds	no binding	
B4					binds	binds	no binding	Kd [5]: 1600 pM
B5	144 pM	526 pM	binds	binds				
B6	14 pM	0.1 pM	binds	binds				binding result [9]: no binding; binding result [10]: no binding; binding result [11]: binds; binding result [12]: binds
B7			binds	binds				
B8			binds	binds				binding result [9]: no binding; binding result [10]: no binding; Kd [13]: 300 pM; Kd [14]: 200 pM; binding result [11]: binds; binding result [12]: binds
